# Experimental data from IntAct's records for PubMed 21239581.
# B1: Chromosomal replication initiator protein DnaA (Bacillus subtilis), P05648 (parent)
# chain: MENILDLWNQALAQIEKKLSKPSFETWMKSTKAHSLQGDTLTITAPNEFARDWLESRYLHLIADTIYELTGEELSIKFVIPQNQDVEDFMPKPQVKKAVKEDTSDFPQNMLNPKYTFDTFVIGSGNRFAHAASLAVAEAPAKAYNPLFIYGGVGLGKTHLMHAIGHYVIDHNPSAKVVYLSSEKFTNEFINSIRDNKAVDFRNRYRNVDVLLIDDIQFLAGKEQTQEEFFHTFNTLHEESKQIVISSDRPPKEIPTLEDRLRSRFEWGLITDITPPDLETRIAILRKKAKAEGLDIPNEVMLYIANQIDSNIRELEGALIRVVAYSSLINKDINADLAAEALKDIIPSSKPKVITIKEIQRVVGQQFNIKLEDFKAKKRTKSVAFPRQIAMYLSREMTDSSLPKIGEEFGGRDHTTVIHAHEKISKLLADDEQLQQHVKEIKEQLK
# partner: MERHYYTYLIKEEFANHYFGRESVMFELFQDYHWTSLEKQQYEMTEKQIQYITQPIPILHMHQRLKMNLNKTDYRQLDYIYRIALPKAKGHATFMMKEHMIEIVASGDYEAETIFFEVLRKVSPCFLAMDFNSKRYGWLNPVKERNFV
# Variants of: B1
# Conditions: with sira_bacsu sirA
row,effect of a mutation on the interaction,Variant
1,disrupting interaction,MENILDLWNQALAQIEKKLSKPSFETWMKSTKAHSLQGDTLTITAPNEFTRDWLESRYLHLIADTIYELTGEELSIKFVIPQNQDVEDFMPKPQVKKAVKEDTSDFPQNMLNPKYTFDTFVIGSGNRFAHAASLAVAEAPAKAYNPLFIYGGVGLGKTHLMHAIGHYVIDHNPSAKVVYLSSEKFTNEFINSIRDNKAVDFRNRYRNVDVLLIDDIQFLAGKEQTQEEFFHTFNTLHEESKQIVISSDRPPKEIPTLEDRLRSRFEWGLITDITPPDLETRIAILRKKAKAEGLDIPNEVMLYIANQIDSNIRELEGALIRVVAYSSLINKDINADLAAEALKDIIPSSKPKVITIKEIQRVVGQQFNIKLEDFKAKKRTKSVAFPRQIAMYLSREMTDSSLPKIGEEFGGRDHTTVIHAHEKISKLLADDEQLQQHVKEIKEQLK [A50T]
2,disrupting interaction,MENILDLWNQALAQIEKKLSKPSFETWMKSTKAHSLQGDTLTITAPNEYARDWLESRYLHLIADTIYELTGEELSIKFVIPQNQDVEDFMPKPQVKKAVKEDTSDFPQNMLNPKYTFDTFVIGSGNRFAHAASLAVAEAPAKAYNPLFIYGGVGLGKTHLMHAIGHYVIDHNPSAKVVYLSSEKFTNEFINSIRDNKAVDFRNRYRNVDVLLIDDIQFLAGKEQTQEEFFHTFNTLHEESKQIVISSDRPPKEIPTLEDRLRSRFEWGLITDITPPDLETRIAILRKKAKAEGLDIPNEVMLYIANQIDSNIRELEGALIRVVAYSSLINKDINADLAAEALKDIIPSSKPKVITIKEIQRVVGQQFNIKLEDFKAKKRTKSVAFPRQIAMYLSREMTDSSLPKIGEEFGGRDHTTVIHAHEKISKLLADDEQLQQHVKEIKEQLK [F49Y]
3,disrupting interaction,MENILDLWNQALAQIEKKLSKPSFETWMKSTKAHSLQGDTLTITAPDEFARDWLESRYLHLIADTIYELTGEELSIKFVIPQNQDVEDFMPKPQVKKAVKEDTSDFPQNMLNPKYTFDTFVIGSGNRFAHAASLAVAEAPAKAYNPLFIYGGVGLGKTHLMHAIGHYVIDHNPSAKVVYLSSEKFTNEFINSIRDNKAVDFRNRYRNVDVLLIDDIQFLAGKEQTQEEFFHTFNTLHEESKQIVISSDRPPKEIPTLEDRLRSRFEWGLITDITPPDLETRIAILRKKAKAEGLDIPNEVMLYIANQIDSNIRELEGALIRVVAYSSLINKDINADLAAEALKDIIPSSKPKVITIKEIQRVVGQQFNIKLEDFKAKKRTKSVAFPRQIAMYLSREMTDSSLPKIGEEFGGRDHTTVIHAHEKISKLLADDEQLQQHVKEIKEQLK [N47D]
